Reference: publication PMC12295313 (2025)
Where a chain is given by its changes, count along the chain named.

Legend:
[1] = target: T1, FGFR1c ectodomain (extracellular ligand-binding domain of FGFR1c), P11362; test: SPR; settings: chains chain, remark: other sources report otherwise
T1 chain: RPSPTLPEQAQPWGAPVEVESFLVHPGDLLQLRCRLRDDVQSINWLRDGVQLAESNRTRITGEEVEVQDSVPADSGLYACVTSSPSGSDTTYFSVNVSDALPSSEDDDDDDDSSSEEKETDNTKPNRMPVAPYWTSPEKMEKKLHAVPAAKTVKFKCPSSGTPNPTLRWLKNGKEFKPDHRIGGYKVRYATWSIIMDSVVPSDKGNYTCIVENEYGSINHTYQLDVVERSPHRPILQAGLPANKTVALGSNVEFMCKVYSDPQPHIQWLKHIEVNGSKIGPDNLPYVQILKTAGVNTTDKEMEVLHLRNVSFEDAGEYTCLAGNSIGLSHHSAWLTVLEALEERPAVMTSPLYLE

[2] = target: T2, FGFR1c ectodomain (extracellular ligand-binding domain of FGFR1c) (UniProt P11362 22-376); test: SPR
T2 chain: T1 chain

B1: Recombinant human wild-type FGF21 (His29-Ser209), Q9NSA1 29-209 (protein)
chain: HPIPDSSPLLQFGGQVRQRYLYTDDAQQTEAHLEIREDGTVGGAADQSPESLLQLKALKPGVIQILGVKTSRFLCQRPDGALYGSLHFDPEACSFRELLLEDGYNVYQSEAHGLPLHLPGNKSPHRDPAPRGPARFLPLPGLPPALPEPPGILAPQPPDVGSSDPLSMVGPSQGRSPSYAS
[1]
  Kd: 7.96 µM

B2: FGF21^D2D3 (FGF21 with its R96–V106 region replaced by the L101–T111 segment of FGF1) (ligand)
chain: B1 chain with R96L, L98R, L100E, D102N, G103H, V106T
[2]
  Kd: 3.94 µM
